Laboratory results taken from publication PMC10715038 (Microbiology Spectrum, 2023).

Target: T1, SARS-CoV-2 WHU01 Spike RBD, monomeric (SARS-CoV-2, UniProt P0DTC2)
T1 construct: not shown: Fc (human IgG1), C-terminal, cleaved
Experiment: SPR
Conditions: both partners purified

B1: Dog ACE2-huFc (soluble dog ACE2 ectodomain, human IgG1 Fc fusion) (Fc fusion)
chain: QSTEDLVKTFLEKFNYEAEELSYQSSLASWNYNINITDENVQKMNNAGAKWSAFYEEQSKLAKTYPLEEIQDSTVKRQLRALQHSGSSVLSADKNQRLNTILNSMSTIYSTGKACNPSNPQECLLLEPGLDDIMENSKDYNERLWAWEGWRSEVGKQLRPLYEEYVALKNEMARANNYEDYGDYWRGDYEEEWENGYNYSRNQLIDDVEHTFTQIMPLYQHLHAYVRTKLMDTYPSYISPTGCLPAHLLGDMWGRFWTNLYPLTVPFGQKPNIDVTNAMVNQSWDARKIFKEAEKFFVSVGLPNMTQEFWENSMLTEPSDSRKVVCHPTAWDLGKGDFRIKMCTKVTMDDFLTAHHEMGHIQYDMAYAAQPFLLRNGANEGFHEAVGEIMSLSAATPNHLKNIGLLPPSFFEDSETEINFLLKQALTIVGTLPFTYMLEKWRWMVFKGEIPKDQWMKTWWEMKRNIVGVVEPVPHDETYCDPASLFHVANDYSFIRYYTRTIYQFQFQEALCQIAKHEGPLHKCDISNSSEAGQKLLEMLKLGKSKPWTYALEIVVGAKNMDVRPLLNYFEPLFTWLKEQNRNSFVGWNTDWSPYADQSIKVRISLKSALGEKAYEWNNNEMYLFRSSIAYAMRQYFSEVKNQTIPFVEDNVWVSDLKPRISFNFFVTSPGNVSDIIPRTEVEEAIRMYRSRINDVFRLDDNSLEFLGIQPTLGPPYEPPVTI
notes: source: 293F cells, transfected, purified from supernatant (Protein A Sepharose)
In the case of B1, the Kd is reported as 275 nM, the koff is reported as 0.0176 s⁻¹ and the kon is reported as 60000 M⁻¹ s⁻¹.
